Experimental data published in patent publication US20160200831A1 (Sanofi, published 2016).
Substitutions are numbered along the chain they refer to.

B1: A44-hv9 (antibody, V domains shown)
VH: QMQLQESGPGLVKPSETLSLTCTVSGDSMTNGYWNWIRQPPGKGLEYMGYITYSGSTYYNPSLKSRITISRDTSKNQYSLKLSSVTAADTAVYYCARWHYGSPYYFDYWGQGTLVTVSS
VL: DIQMTQSPSSLSASVGDRVTITCKASQDINSYLSWLQQKPGKAPKTLIYRANRSVDGVPSRFSGSGSGQDYTFTISSLQPEDIATYYCLQYDEFPPTFGGGTKVEIK
notes: humanized A44, HEK293; constant regions as for A44-hv1; also called LC5b x HC5b; variant 9
B2: A44-hv14 (antibody, V domains shown)
VH: B1 VH
VL: B1 VL with Q3K, A43S, N52Q, D56E, T72S, F73L, I83L, V104L
notes: humanized A44, HEK293; constant regions as for A44-hv1; also called LC4 x HC5b; variant 14
B3: A44-hv12 (antibody, V domains shown)
VH: QMTLKESGPTLVKPTQTLSLTCSVSGDSMTNGYWNWIRQFPGKALEYMGYITYSGSTYYNPSLKGRITITRDTSKNQYYLTLSSVTTVDTATYYCARWHYGSPYYFDYWGQGTTLTVSS
VL: B1 VL with Q3K, A43S, N52Q, D56E, T72S, F73L, I83L, V104L
notes: humanized A44, HEK293; constant regions as for A44-hv1; also called LC4 x HC3; variant 12
B4: A44-hv6 (antibody, V domains shown)
VH: B3 VH
VL: B1 VL with Q3K, A43S, T72S, F73L, I83L, V104L
notes: humanized A44, HEK293; constant regions as for A44-hv1; also called LC3 x HC3; variant 6
B5: A44-hv1 (antibody, V domains shown)
VH: B3 VH with Q1E, S25T, Q39K, T68S, D72N
VL: B1 VL with Q3K, A43S, T72S, F73L, I83L, A84G, T85I, V104L
notes: humanized A44, HEK293; also called LC1a x HC1a; variant 1
B6: A44-hv5 (antibody, V domains shown)
VH: B3 VH with Q1E, S25T, N31Q, Q39K, T68S, D72N
VL: B1 VL with Q3K, A43S, N52Q, D56E, T72S, F73L, I83L, A84G, T85I, V104L
notes: humanized A44, HEK293; constant regions as for A44-hv1; also called LC2 x HC2b; variant 5
B7: A44-hv4 (antibody, V domains shown)
VH: B3 VH with Q1E, S25T, N31Q, Q39K, T68S, D72N
VL: B1 VL with Q3K, A43S, T72S, F73L, I83L, A84G, T85I, V104L
notes: humanized A44, HEK293; constant regions as for A44-hv1; also called LC1a x HC2b; variant 4
B8: C45 (antibody, mouse IgG2b, V domains shown)
VH: QVQLQQSGVELVRPGTSVKVSCKASGYAFTNYLIEWIKQRPGQGLEWIGVIHPGSGVTNYNEKFKGKAILTADKSSSTAYMQLSSLTSDDSAVYFCARDYYGSSHGLMDYWGQGTSVTVSS
VL: DIKMTQSPSSMYASLGERVTITCKASQDINSYLSWFQQKPGKSPKTLIYRANRLVDGVPSRFSGSGSGQDYSLTISSLEYEDMGIYYCLQYDEFPRTFGGGTKLEIK
notes: mouse IgG2b; also called mC45; C45 (IgG2b)
B9: A44-hv8 (antibody, V domains shown)
VH: B1 VH with M2V, D72N
VL: B1 VL with T46L, Q69T

molecular target: T1, human PAI-1 captured on immobilized human vitronectin (human, UniProt P04004 20-478); assay: Biacore, hPAI-1 on vitronectin chip, 1:1 model
T1 construct: non-covalent complex formed on the chip or plate; also called PAI-1/Vn complex; Vn captured hPAI-1
T1 sequence (chain, as listed by the source limits assumed, chain 1 of 2): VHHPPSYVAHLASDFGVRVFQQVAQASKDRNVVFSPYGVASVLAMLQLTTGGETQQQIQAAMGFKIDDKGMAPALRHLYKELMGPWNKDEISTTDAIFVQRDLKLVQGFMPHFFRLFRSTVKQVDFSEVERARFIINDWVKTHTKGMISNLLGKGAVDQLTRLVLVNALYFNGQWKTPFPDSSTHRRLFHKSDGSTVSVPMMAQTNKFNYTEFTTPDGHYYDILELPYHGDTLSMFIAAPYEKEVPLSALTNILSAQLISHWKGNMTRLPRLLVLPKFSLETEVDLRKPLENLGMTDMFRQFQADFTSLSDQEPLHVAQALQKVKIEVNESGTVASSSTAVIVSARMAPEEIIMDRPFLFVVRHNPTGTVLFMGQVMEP
T1 sequence (P04004 20-478 limits assumed, chain 2 of 2): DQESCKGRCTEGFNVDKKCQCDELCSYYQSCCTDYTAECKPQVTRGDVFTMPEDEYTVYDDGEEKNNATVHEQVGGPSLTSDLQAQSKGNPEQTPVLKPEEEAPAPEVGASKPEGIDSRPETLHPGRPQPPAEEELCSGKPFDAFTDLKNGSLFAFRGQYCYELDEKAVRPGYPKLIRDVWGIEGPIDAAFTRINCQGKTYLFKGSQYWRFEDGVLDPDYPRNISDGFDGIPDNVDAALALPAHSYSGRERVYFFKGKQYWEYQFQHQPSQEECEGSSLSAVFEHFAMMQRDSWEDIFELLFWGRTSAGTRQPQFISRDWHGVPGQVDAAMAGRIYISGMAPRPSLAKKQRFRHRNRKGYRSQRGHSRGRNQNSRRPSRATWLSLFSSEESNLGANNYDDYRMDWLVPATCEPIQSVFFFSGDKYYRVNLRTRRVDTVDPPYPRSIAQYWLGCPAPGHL

Row | Binder | Kd [nM] | koff [s⁻¹] | kon [M⁻¹ s⁻¹]
1 | B1 | 0.017 | 0.000103 | 6.36e+06
2 | B2 | 0.00957 | 3.95e-05 | 4.06e+06
3 | B3 | 0.0161 | 8.14e-05 | 5.15e+06
4 | B4 | 0.0133 | 5.68e-05 | 4.38e+06
5 | B5 | 0.0526 | 0.000555 | 1.1e+07
6 | B6 | 0.0102 | 2.76e-05 | 2.72e+06
7 | B7 | 0.0192 | 8.8e-05 | 4.59e+06

molecular target: T2, glycosylated human PAI-1 (active form) (human, UniProt P05121 24-402, glycosylated); assay: cell-based or functional assay

Row | plasmin generation, hepatic stellate cells, IC50abs [nM] | plasmin generation, hepatic stellate cells, Imax [%] | Binder
8 | 6.5 | 97 | B8

molecular target: T2, glycosylated human PAI-1 (active form); assay: cell-based or functional assay; remark: another data set of the same source

Row | Chromogenic Assays [nM] | Plasmin Generation [nM] | Binder
9 | 0.5 | 10.6 | B8

molecular target: T3, cyno PAI-1 captured on immobilized human vitronectin (cynomolgus monkey; human, UniProt P04004 20-478, limits assumed); assay: Biacore, cPAI-1 on vitronectin chip, two state reaction model (kd1)
T3 construct: non-covalent complex formed on the chip; also called cPAI-1/Vn
T3 sequence (chain, as listed by the source limits assumed, chain 1 of 2): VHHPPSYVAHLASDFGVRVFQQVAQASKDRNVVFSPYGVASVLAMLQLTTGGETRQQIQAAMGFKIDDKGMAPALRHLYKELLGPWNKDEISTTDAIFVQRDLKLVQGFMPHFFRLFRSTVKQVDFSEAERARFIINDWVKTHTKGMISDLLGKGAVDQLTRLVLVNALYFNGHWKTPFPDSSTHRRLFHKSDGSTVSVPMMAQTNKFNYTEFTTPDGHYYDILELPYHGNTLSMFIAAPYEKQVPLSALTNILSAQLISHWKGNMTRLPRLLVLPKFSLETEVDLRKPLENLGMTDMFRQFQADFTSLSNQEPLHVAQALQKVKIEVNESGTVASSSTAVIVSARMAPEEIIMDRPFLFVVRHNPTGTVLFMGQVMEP
T3 sequence (P04004 20-478 limits assumed, chain 2 of 2): as the sequence (P04004 20-478 limits assumed, chain 2 of 2) above

Row | Binder | koff [s⁻¹]
10 | B5 | 0.00827
11 | B7 | 0.00017

molecular target: T3, cyno PAI-1 captured on immobilized …; assay: Biacore, cPAI-1 on vitronectin chip, 1:1 model

Row | Binder | Kd [nM] | koff [s⁻¹] | kon [M⁻¹ s⁻¹]
12 | B1 | 0.0215 | 0.000134 | 6.51e+06
13 | B2 | 0.0386 | 0.000213 | 5.86e+06
14 | B3 | 0.0569 | 0.000235 | 4.26e+06
15 | B4 | 0.00501 | 2.51e-05 | 5.26e+06
16 | B6 | 0.0326 | 0.000111 | 3.4e+06

molecular target: T4, human PAI-1 (human, UniProt P05121 24-402); assay: cell-based or functional assay

Row | Binder | Chromogenic Assay IC50 [nM]
17 | B1 | 0.86
18 | B9 | 0.76
19 | B4 | 0.82
20 | B5 | 0.49
21 | B6 | 1.11
22 | B7 | 0.52

molecular target: T2, glycosylated human PAI-1 (active form); assay: cell-based or functional assay; remark: another data set of the same source

Row | Binder | Plasminogen Activation IC50 [nM] | Plasminogen Activation Y50% [%]
23 | B1 | 1.9 | 46.5
24 | B9 |  | 11
25 | B4 | 1.78 | 56.9
26 | B5 | 3.12 | 45
27 | B7 |  | 26

molecular target: T4, human PAI-1; assay: cell-based or functional assay; remark: another data set of the same source

Row | active PAI-1 by uPA-PAI-1 complex ELISA, hPAI-1 Standard, IC50 [nM] | active PAI-1 by uPA-PAI-1 complex ELISA, hPAI-1 Standard, Y50% [%] | active PAI-1 by uPA-PAI-1 complex ELISA, hPlasma TH1782, IC50 [nM] | active PAI-1 by uPA-PAI-1 complex ELISA, hPlasma TH1782, Y50% [%] | Binder
28 | 0.0563 | 52.5 | 0.0586 | 73.9 | B2
29 | 0.114 | 53.5 | 0.00335 | 37.7 | B3

molecular target: T5, cynomolgus PAI-1 (cynomolgus monkey (Macaca fascicularis), UniProt P05121 24-402 (human entry)); assay: cell-based or functional assay

Row | active PAI-1 by uPA-PAI-1 complex ELISA, Cyno PAI-1, IC50 [nM] | active PAI-1 by uPA-PAI-1 complex ELISA, Cyno PAI-1, Y50% [%] | Binder
30 | 0.0287 | 52.5 | B2
31 | 0.0266 | 53.5 | B3

molecular target: T5, cynomolgus PAI-1; assay: Biacore, mAb on anti-human IgG Fc chip / cyno PAI-1, 1:1 model

Row | Kd [nM] | koff [s⁻¹] | kon [M⁻¹ s⁻¹] | Binder
32 | 0.0115 | 2.69e-05 | 2.32e+06 | B2
33 | 0.0244 | 5.45e-05 | 2.24e+06 | B3

molecular target: T3, cyno PAI-1 captured on immobilized …; assay: Biacore, cPAI-1 on vitronectin chip, two state reaction model

Row | Binder | Kd [nM]
34 | B5 | 2.45
35 | B7 | 0.752

molecular target: T2, glycosylated human PAI-1 (active form); assay: cell-based or functional assay; remark: another data set of the same source

Row | Binder | Plasminogen Activation IC50 [nM] | Plasminogen Activation Y50% [%]
36 | B1 | 1.51 | 50.9
37 | B2 | 1.82 | 61.2
38 | B3 | 1.99 | 76.7
39 | B5 | 2.08 | 58.5

molecular target: T4, human PAI-1; assay: Biacore, mAb on anti-human IgG Fc chip, 1:1 model

Row | Kd [nM] | koff [s⁻¹] | kon [M⁻¹ s⁻¹] | Binder
40 | 0.027 | 3.42e-05 | 1.25e+06 | B2
41 | 0.0414 | 6.7e-05 | 1.62e+06 | B3

molecular target: T3, cyno PAI-1 captured on immobilized …; assay: Biacore, cPAI-1 on vitronectin chip, two state reaction model (ka1)

Row | Binder | kon [M⁻¹ s⁻¹]
42 | B5 | 3.37e+06
43 | B7 | 226000

molecular target: T4, human PAI-1; assay: Biacore, hybridoma supernatant

Row | koff [s⁻¹] | Binder
44 | ≤ 0.0001 | B8
